Measurements taken from paper PMC8591422.

T1: PBX1-DBD (UniProt P40424 233-295)
T1 sequence: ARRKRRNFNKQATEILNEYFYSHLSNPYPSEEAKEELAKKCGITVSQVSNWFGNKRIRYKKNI

T2: PBX1 (recombinant, Origene) (UniProt P40424 1-430)
T2 sequence: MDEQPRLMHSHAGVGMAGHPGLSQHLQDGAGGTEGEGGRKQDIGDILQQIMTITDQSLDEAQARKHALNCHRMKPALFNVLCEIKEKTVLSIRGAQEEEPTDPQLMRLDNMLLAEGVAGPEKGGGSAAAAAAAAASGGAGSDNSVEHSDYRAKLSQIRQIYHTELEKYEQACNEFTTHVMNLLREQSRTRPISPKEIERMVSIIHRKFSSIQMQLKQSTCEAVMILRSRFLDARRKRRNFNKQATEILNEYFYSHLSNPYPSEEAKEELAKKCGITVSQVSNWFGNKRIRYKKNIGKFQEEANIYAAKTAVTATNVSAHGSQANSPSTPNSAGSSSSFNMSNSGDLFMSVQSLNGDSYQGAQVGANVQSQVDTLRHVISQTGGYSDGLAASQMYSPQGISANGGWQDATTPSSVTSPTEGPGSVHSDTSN

B1: PBX1 Probe (PBX1-CS-DNA-Biotin) (dsDNA)
DNA 1: CGAAATTGATTGATGCTTTAATTGAC
DNA 2: GTCAATTAAAGCATCAATCAATTTCG
B2: PBX-MEIS Probe (dsDNA)
DNA 1: CTGCGTTGATTGACAGCCGC
DNA 2: GCGGCTGTCAATCAACGCAG

Assays:
PBX1-DBD = biological target: T1, PBX1-DBD; test: SPR
[1] = biological target: T2, PBX1 (recombinant, Origene); test: EMSA

Binder | Kd (PBX1-DBD) [nM] | binding result [1]
B1 | 0.8 | 
B2 |  | binds
